The text below walks through data of PMC6409194 (European journal of pharmacology, 2019).

By Kd is commonly meant the free concentration of one partner at which half of the binding sites on the other are occupied at equilibrium, for simple one-to-one binding. Low values mean tighter binding, high ones weaker binding.

In the assay the target is calmodulin (UniProt P0DP23 1-149). As to the kind of experiment: other fluorescence titration.

FKKAFQNVLRIQCLCRKQSSQHAAGYTLH (domain or fragment): the dissociation constant Kd is 3.8 µM.
